# Assay results: patent US20220411483A1 (Chugai, published 2022)
# T1: FcgRIIaR (human, UniProt P12318 34-217)
# T1 construct: extracellular domain; also called FcγRIIa R type; FcγRIIa (R type)
# T1 sequence (looked up): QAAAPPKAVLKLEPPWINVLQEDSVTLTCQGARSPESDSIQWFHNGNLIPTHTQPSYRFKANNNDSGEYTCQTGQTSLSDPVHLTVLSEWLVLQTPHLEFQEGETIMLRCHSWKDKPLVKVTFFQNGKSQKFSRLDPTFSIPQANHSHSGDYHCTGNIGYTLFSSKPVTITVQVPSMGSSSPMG
# T2: FcgRIIb (human, UniProt P31994 43-217)
# T2 construct: extracellular domain; also called FcγRIIb
# T2 sequence (looked up): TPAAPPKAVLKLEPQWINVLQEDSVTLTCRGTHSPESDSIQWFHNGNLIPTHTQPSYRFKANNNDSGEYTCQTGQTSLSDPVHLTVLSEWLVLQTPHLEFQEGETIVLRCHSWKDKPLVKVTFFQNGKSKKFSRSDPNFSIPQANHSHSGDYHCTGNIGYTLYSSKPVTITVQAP
# Tests used:
# FcgRIIaR = molecular target: T1, FcgRIIaR; experiment: SPR, amount bound per captured antibody
# FcgRIIb = molecular target: T2, FcgRIIb; experiment: SPR, amount bound per captured antibody
# human complement C1q = molecular target: T3, human complement C1q (human, UniProt P02745 23-245; P02746 28-253; P02747 29-245); experiment: SPR, C1q bound per antibody captured on Protein L
# T3 construct: Bought (PROSPEC or Calbiochem); also called human C1q
# T3 sequence (P02745 23-245 limits assumed, chain 1 of 3): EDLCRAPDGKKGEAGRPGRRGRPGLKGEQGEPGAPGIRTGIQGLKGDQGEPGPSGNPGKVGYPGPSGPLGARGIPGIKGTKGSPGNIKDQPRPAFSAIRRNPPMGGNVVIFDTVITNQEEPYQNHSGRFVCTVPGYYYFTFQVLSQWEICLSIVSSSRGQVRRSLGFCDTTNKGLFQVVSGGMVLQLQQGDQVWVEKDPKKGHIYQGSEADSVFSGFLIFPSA
# T3 sequence (P02746 28-253 limits assumed, chain 2 of 3): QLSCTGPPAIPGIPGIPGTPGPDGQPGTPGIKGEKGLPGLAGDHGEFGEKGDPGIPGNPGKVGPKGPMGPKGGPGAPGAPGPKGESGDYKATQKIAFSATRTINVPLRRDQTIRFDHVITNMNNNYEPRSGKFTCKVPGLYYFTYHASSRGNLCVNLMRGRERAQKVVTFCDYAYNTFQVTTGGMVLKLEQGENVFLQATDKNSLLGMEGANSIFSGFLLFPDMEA
# T3 sequence (P02747 29-245 limits assumed, chain 3 of 3): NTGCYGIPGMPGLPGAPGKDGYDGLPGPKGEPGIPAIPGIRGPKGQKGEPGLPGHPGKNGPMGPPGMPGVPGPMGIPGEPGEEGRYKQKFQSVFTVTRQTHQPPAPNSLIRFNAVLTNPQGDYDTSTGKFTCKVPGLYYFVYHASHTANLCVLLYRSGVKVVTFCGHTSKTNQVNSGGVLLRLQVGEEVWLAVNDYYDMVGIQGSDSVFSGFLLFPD
# Method: The interaction between an antibody and human C1q was analyzed using Biacore T200 (GE Healthcare). HBS-EP+ (GE Healthcare) was used as the running buffer, and the measurement temperature was set at 25° C. Chips produced by immobilizing Protein L (ACTIGEN or BioVision) onto Series S sensor Chip CM4 (GE Healthcare) by amine coupling were used.
# The antibodies of interest were captured onto these sensor chips, and allowed to interact with human complement C1q (PROSPEC or Calbiochem) diluted in the running buffer. The amount of antibody binding was determined, and comparisons were made among the antibodies. However, since the amount of C1q bound depends on the amount of captured antibodies, corrected values obtained by dividing the amount of C1q bound by the amount of each antibody captured were compared. Furthermore, by reaction with 10 mM glycine-HCl, pH 1.5, the antibodies captured onto the sensor chips were washed, and the sensor chips were recycled and reused.
Binder,Relative FcgRIIaR-binding Activity (FcgRIIaR),Relative FcgRIIb-binding Activity (FcgRIIb),Amount of C1q-binding when that for G1d is Defined as 100 (human complement C1q)
"IL6R-P745/IL6R-L (antibody, human IgG1, kappa) heavy: QVQLQESGPGLVKPSETLSLTCAVSGHSISHDHAWSWVRQPPGEGLEWIGFISYSGITNYNPSLQGRVTISRDNSKNTLYLQMNSLRAEDTAVYYCARSLARTTAMDYWGEGTLVTVSSASTKGPSVFPLAPSSKSTSGGTAALGCLVKDYFPEPVTVSWNSGALTSGVHTFPAVLQSSGLYSLSSVVTVPSSSLGTQTYICNVNHKPSNTKVDKKVEPKSCDKTHTCPPCPAPELLGGDSVFLFPPKPKDTLMISRTPEVTCVVVDVSHEDPEVKFNWYVDGVEVHNAKTKPREEQYNATYRVVSVLTVLHQDWLNGKEYKCEVSNKALPAPIEKTISKAKGQPREPQVYTLPPSRDELTKNQVSLTCLVKGFYPSDIAVEWESNGQPENNYKTTPPVLDSDGSFFLYSKLTVDKSRWQQGNVFSCSVMHEALHNHYTQKSLSLSP light: not shown",13.7 IL6R-G1d/IL6R-L=100,95.4 IL6R-G1d/IL6R-L=100,20.9 G1d=100
"IL6R-P746/IL6R-L (antibody, human IgG1, kappa) heavy: QVQLQESGPGLVKPSETLSLTCAVSGHSISHDHAWSWVRQPPGEGLEWIGFISYSGITNYNPSLQGRVTISRDNSKNTLYLQMNSLRAEDTAVYYCARSLARTTAMDYWGEGTLVTVSSASTKGPSVFPLAPSSKSTSGGTAALGCLVKDYFPEPVTVSWNSGALTSGVHTFPAVLQSSGLYSLSSVVTVPSSSLGTQTYICNVNHKPSNTKVDKKVEPKSCDKTHTCPPCPAPELFGQDSVMLFPPKPKDTLMISRTPEVTCVVVDVSHEDPEVKFNWYVDGVEVHNAKTKPREEQENSTYRVVSVLTVLHQDWLNGKEYKCAVSNKALPAPIEKTISKAKGQPREPQVYTLPPSRDELTKNQVSLTCLVKGFYPSDIAVEWESNGQPENNYKTTPPVLDSDGSFFLYSKLTVDKSRWQQGNVFSCSVMHEALHNHYTQKSLSLSP light: not shown",7 IL6R-G1d/IL6R-L=100,57.5 IL6R-G1d/IL6R-L=100,1.4 G1d=100
"IL6R-P747/IL6R-L (antibody, human IgG1, kappa) heavy: QVQLQESGPGLVKPSETLSLTCAVSGHSISHDHAWSWVRQPPGEGLEWIGFISYSGITNYNPSLQGRVTISRDNSKNTLYLQMNSLRAEDTAVYYCARSLARTTAMDYWGEGTLVTVSSASTKGPSVFPLAPSSKSTSGGTAALGCLVKDYFPEPVTVSWNSGALTSGVHTFPAVLQSSGLYSLSSVVTVPSSSLGTQTYICNVNHKPSNTKVDKKVEPKSCDKTHTCPPCPAPELFGQDSVMLFPPKPKDTLMISRTPEVTCVVVDVSHEDPEVKFNWYVDGVEVHNAKTKPREEQENSTYRVVSVLTVLHQDWLNGKEYKCEVSNKALPAPIEKTISKAKGQPREPQVYTLPPSRDELTKNQVSLTCLVKGFYPSDIAVEWESNGQPENNYKTTPPVLDSDGSFFLYSKLTVDKSRWQQGNVFSCSVMHEALHNHYTQKSLSLSP light: not shown",10 IL6R-G1d/IL6R-L=100,98.1 IL6R-G1d/IL6R-L=100,13.7 G1d=100
"IL6R-P748/IL6R-L (antibody, human IgG1, kappa) heavy: QVQLQESGPGLVKPSETLSLTCAVSGHSISHDHAWSWVRQPPGEGLEWIGFISYSGITNYNPSLQGRVTISRDNSKNTLYLQMNSLRAEDTAVYYCARSLARTTAMDYWGEGTLVTVSSASTKGPSVFPLAPSSKSTSGGTAALGCLVKDYFPEPVTVSWNSGALTSGVHTFPAVLQSSGLYSLSSVVTVPSSSLGTQTYICNVNHKPSNTKVDKKVEPKSCDKTHTCPPCPAPELLGQDSVMLFPPKPKDTLMISRTPEVTCVVVDVSPEDPEVKFNWYVDGVEVHNAKTKPREEQENSTYRVVSVLTVLHQDWLNGKEYKCAVSNKALPHPIEKTISKAKGQPREPQVYTLPPSRDELTKNQVSLTCLVKGFYPSDIAVEWESNGQPENNYKTTPPVLDSDGSFFLYSKLTVDKSRWQQGNVFSCSVMHEALHNHYTQKSLSLSP light: not shown",5.1 IL6R-G1d/IL6R-L=100,42.7 IL6R-G1d/IL6R-L=100,1.4 G1d=100
"IL6R-P749/IL6R-L (antibody, human IgG1, kappa) heavy: QVQLQESGPGLVKPSETLSLTCAVSGHSISHDHAWSWVRQPPGEGLEWIGFISYSGITNYNPSLQGRVTISRDNSKNTLYLQMNSLRAEDTAVYYCARSLARTTAMDYWGEGTLVTVSSASTKGPSVFPLAPSSKSTSGGTAALGCLVKDYFPEPVTVSWNSGALTSGVHTFPAVLQSSGLYSLSSVVTVPSSSLGTQTYICNVNHKPSNTKVDKKVEPKSCDKTHTCPPCPAPELLGQDSVMLFPPKPKDTLMISRTPEVTCVVVDVSPEDPEVKFNWYVDGVEVHNAKTKPREEQENSTYRVVSVLTVLHQDWLNGKEYKCEVSNKALPHPIEKTISKAKGQPREPQVYTLPPSRDELTKNQVSLTCLVKGFYPSDIAVEWESNGQPENNYKTTPPVLDSDGSFFLYSKLTVDKSRWQQGNVFSCSVMHEALHNHYTQKSLSLSP light: not shown",6.8 IL6R-G1d/IL6R-L=100,73.9 IL6R-G1d/IL6R-L=100,13.8 G1d=100

# More lines, now with the values ahead:
Relative FcgRIIaR-binding Activity (FcgRIIaR),Relative FcgRIIb-binding Activity (FcgRIIb),Amount of C1q-binding when that for G1d is Defined as 100 (human complement C1q),Binder
7.2 IL6R-G1d/IL6R-L=100,62.9 IL6R-G1d/IL6R-L=100,1.1 G1d=100,"IL6R-P752/IL6R-L (antibody, human IgG1, kappa) heavy: QVQLQESGPGLVKPSETLSLTCAVSGHSISHDHAWSWVRQPPGEGLEWIGFISYSGITNYNPSLQGRVTISRDNSKNTLYLQMNSLRAEDTAVYYCARSLARTTAMDYWGEGTLVTVSSASTKGPSVFPLAPSSKSTSGGTAALGCLVKDYFPEPVTVSWNSGALTSGVHTFPAVLQSSGLYSLSSVVTVPSSSLGTQTYICNVNHKPSNTKVDKKVEPKSCDKTHTCPPCPAPELFGQDSVMLFPPKPKDTLMISRTPEVTCVVVDVSPEDPEVKFNWYVDGVEVHNAKTKPREEQENSTYRVVSVLTVLHQDWLNGKEYKCAVHNKALPAPIEKTISKAKGQPREPQVYTLPPSRDELTKNQVSLTCLVKGFYPSDIAVEWESNGQPENNYKTTPPVLDSDGSFFLYSKLTVDKSRWQQGNVFSCSVMHEALHNHYTQKSLSLSP light: not shown"
6.1 IL6R-G1d/IL6R-L=100,48.1 IL6R-G1d/IL6R-L=100,1.2 G1d=100,"IL6R-P750/IL6R-L (antibody, human IgG1, kappa) heavy: QVQLQESGPGLVKPSETLSLTCAVSGHSISHDHAWSWVRQPPGEGLEWIGFISYSGITNYNPSLQGRVTISRDNSKNTLYLQMNSLRAEDTAVYYCARSLARTTAMDYWGEGTLVTVSSASTKGPSVFPLAPSSKSTSGGTAALGCLVKDYFPEPVTVSWNSGALTSGVHTFPAVLQSSGLYSLSSVVTVPSSSLGTQTYICNVNHKPSNTKVDKKVEPKSCDKTHTCPPCPAPELFGQDSVMLFPPKPKDTLMISRTPEVTCVVVDVSPEDPEVKFNWYVDGVEVHNAKTKPREEQENSTYRVVSVLTVLHQDWLNGKEYKCAVSNKALPAPIEKTISKAKGQPREPQVYTLPPSRDELTKNQVSLTCLVKGFYPSDIAVEWESNGQPENNYKTTPPVLDSDGSFFLYSKLTVDKSRWQQGNVFSCSVMHEALHNHYTQKSLSLSP light: not shown"
7.4 IL6R-G1d/IL6R-L=100,72.5 IL6R-G1d/IL6R-L=100,13.9 G1d=100,"IL6R-P751/IL6R-L (antibody, human IgG1, kappa) heavy: QVQLQESGPGLVKPSETLSLTCAVSGHSISHDHAWSWVRQPPGEGLEWIGFISYSGITNYNPSLQGRVTISRDNSKNTLYLQMNSLRAEDTAVYYCARSLARTTAMDYWGEGTLVTVSSASTKGPSVFPLAPSSKSTSGGTAALGCLVKDYFPEPVTVSWNSGALTSGVHTFPAVLQSSGLYSLSSVVTVPSSSLGTQTYICNVNHKPSNTKVDKKVEPKSCDKTHTCPPCPAPELFGQDSVMLFPPKPKDTLMISRTPEVTCVVVDVSPEDPEVKFNWYVDGVEVHNAKTKPREEQENSTYRVVSVLTVLHQDWLNGKEYKCEVSNKALPAPIEKTISKAKGQPREPQVYTLPPSRDELTKNQVSLTCLVKGFYPSDIAVEWESNGQPENNYKTTPPVLDSDGSFFLYSKLTVDKSRWQQGNVFSCSVMHEALHNHYTQKSLSLSP light: not shown"
